According to patent publication US20200010534A1 (SAGABIO, published 2020):

Assays:
[1] = molecular target: T1, HpHSP60 fragment Δ[5], positions 101-168 of HpHSP60 (Helicobacter pylori, UniProt B2UW12 101-168); assay: recognition of HpHSP60 fragments by the antibody (spot/blot, FIG. 16)
T1 sequence: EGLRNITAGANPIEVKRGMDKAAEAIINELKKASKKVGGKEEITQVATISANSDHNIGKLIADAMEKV

[2] = molecular target: T2, HpHSP60 fragment Δ[1], positions 134-200 of HpHSP60 (Helicobacter pylori, UniProt B2UW12 134-200); assay: as above
T2 sequence: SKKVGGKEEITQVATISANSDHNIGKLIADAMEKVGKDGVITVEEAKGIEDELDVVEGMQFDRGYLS

[3] = molecular target: T3, HpHSP60 fragment including positions 101-200 (Helicobacter pylori, UniProt B2UW12 101-200); assay: recognition of HpHSP60 fragments by the antibody (spot/blot, FIG. 15)
T3 construct: also called HSP 60 101-200
T3 sequence: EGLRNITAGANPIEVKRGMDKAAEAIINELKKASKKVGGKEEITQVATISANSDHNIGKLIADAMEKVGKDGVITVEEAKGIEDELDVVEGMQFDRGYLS

B1: LHP-1 (9E4) antibody (antibody, V domains shown)
VH: EVHLVESGGDLVKPGGSLKLSCAASGFTFSSFGMSWVRQTPDKRLEWVATISNGGSYTYYPDSVKGRFTISRDNAKNTLYLQMSSLKSEDTAMYYCTRQGLRRRGAMDYWGQGTSVTVSS
VL: DIVLTQSPASLAVSLGQRATISCKASQSVDYDGDVFLNWYQQKPGQPPKLLIYAASNLESGIPARFSGSGSGTDFTLNIHPVEEDDAATYYCQQSNEVPWTFGGGTKLEIK
notes: Mouse monoclonal antibody from hybridoma 9E4 (ATCC PTA-122900); The variable regions are tied to the deposited hybridoma only in the claims; also called LHP-1 (9E4) mAb; monoclonal antibody produced by hybridoma ATCC PTA-122900
B1: no binding [1]; binds [2]; binds [3].
